Experimental data reported in article PMC2807034, “An Autoinhibitory Tyrosine Motif in the Cell-Cycle-Regulated Nek7 Kinase Is Released through Binding of Nek9” (Molecular Cell, 2009).

Legend:
Experiment in all cases: pull-down; GST-fusion protein (20 pmol) immobilised on glutathione Sepharose 4B beads; incubated with 1 ml of 3.5 uM Nek7 protein for 2 hr; PD buffer (20 mM HEPES pH 7.5, 150 mM NaCl, 0.05% Tween 20); three 30 min washes at 4°C; anti-His6 immunoblot
Conditions in all cases: both partners purified
Nek7-N33D = target: T1, Nek7-N33D (human, UniProt Q8TDX7 1-302, N33D)
T1 construct: Nek7, human, point mutant of the full-length His6 construct (QuikChange); also called ND; source: bacterially expressed and purified; not shown: His6, C-terminal, kept
T1 sequence (Q8TDX7 whole entry N33D): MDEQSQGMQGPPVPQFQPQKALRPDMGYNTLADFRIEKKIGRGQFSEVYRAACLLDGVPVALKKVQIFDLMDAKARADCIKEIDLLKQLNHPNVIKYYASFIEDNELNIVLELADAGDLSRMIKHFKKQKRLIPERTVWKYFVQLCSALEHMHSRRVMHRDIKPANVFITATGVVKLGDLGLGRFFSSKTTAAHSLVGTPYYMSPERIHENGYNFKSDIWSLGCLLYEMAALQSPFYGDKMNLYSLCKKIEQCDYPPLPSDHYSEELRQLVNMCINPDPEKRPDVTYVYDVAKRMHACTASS

Nek7-Y28A/L31A = target: T2, Nek7-Y28A/L31A (human, UniProt Q8TDX7 1-302, Y28A | L31A)
T2 construct: Nek7, human, double point mutant of the full-length His6 construct (QuikChange); also called YA/LA; source: bacterially expressed and purified; not shown: His6, C-terminal, kept
T2 sequence (Q8TDX7 whole entry Y28A/L31A): as the sequence (Q8TDX7 whole entry N33D) above, with Y28A, L31A, D33N counted along it

[1] = target: T3, Nek7, wild-type, full-length human protein with C-terminal His6 tag (human, UniProt Q8TDX7 1-302)
T3 construct: Nek7 (NIMA-related kinase 7), human, full-length (35 kDa), cloned into pET30; The His6 tag is uncleavable; also called Nek7-WT; WT; source: E. coli Codonplus RPIL, coexpressed with lambda phosphatase, purified (HisTRAP, then dialysis or gel filtration); not shown: His6, C-terminal, kept
T3 sequence (Q8TDX7 whole entry): as the sequence (Q8TDX7 whole entry N33D) above, with D33N counted along it

[2] = target: T4, Nek7-Δ20, N-terminal truncation of Nek7 starting at residue 20 (human, UniProt Q8TDX7 20-302)
T4 construct: Nek7, human, truncation starting at residue 20; source: bacterially expressed and purified
T4 sequence (Q8TDX7 20-302, stated change not applied): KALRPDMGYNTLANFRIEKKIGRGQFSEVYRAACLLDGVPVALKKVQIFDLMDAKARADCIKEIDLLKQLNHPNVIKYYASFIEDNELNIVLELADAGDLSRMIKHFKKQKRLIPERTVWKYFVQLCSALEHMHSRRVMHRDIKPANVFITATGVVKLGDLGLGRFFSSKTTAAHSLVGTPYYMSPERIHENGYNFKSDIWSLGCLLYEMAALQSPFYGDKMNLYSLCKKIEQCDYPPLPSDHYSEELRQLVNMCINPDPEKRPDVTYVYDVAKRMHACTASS

[3] = target: T5, Nek7-Δ30, N-terminal truncation of Nek7 starting at residue 30 (human, UniProt Q8TDX7 30-302)
T5 construct: Nek7, human, truncation starting at residue 30; source: bacterially expressed and purified
T5 sequence (Q8TDX7 30-302, stated change not applied): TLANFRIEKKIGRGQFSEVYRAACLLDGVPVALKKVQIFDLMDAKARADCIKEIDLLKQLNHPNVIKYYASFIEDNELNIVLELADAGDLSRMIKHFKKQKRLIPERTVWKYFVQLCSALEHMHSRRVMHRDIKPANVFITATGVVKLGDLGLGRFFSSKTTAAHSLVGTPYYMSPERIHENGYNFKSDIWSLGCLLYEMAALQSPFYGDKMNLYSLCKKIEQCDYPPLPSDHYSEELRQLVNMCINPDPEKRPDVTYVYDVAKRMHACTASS

- binding result (Nek7-N33D): binds
- binding result (Nek7-Y28A/L31A): binds
- binding result [1]: binds
- binding result [2]: binds
- binding result [3]: binds
B1: GST-tagged C-terminal domain of human Nek9 (amino acids 706-960) (domain or fragment, UniProt Q8TD19 706-960, looked up)
chain: SLHHVPDLSCRGWHTILIVEKVLNSKTIRSNSSGLSIGTVFQSSSPGGGGGGGGGEEEDSQQESETPDPSGGFRGTMEADRGMEGLISPTEAMGNSNGASSSCPGWLRKELENAEFIPMPDSPSPLSAAFSESEKDTLPYEELQGLKVASEAPLEHKPQVEASSPRLNPAVTCAGKGTPLTPPACACSSLQVEVERLQGLVLKCLAEQQKLQQENLQIFTQLQKLNKKLEGGQQVGMHSKGTQTAKEEMEMDPKP
notes: Nek9, human, noncatalytic C-terminal domain (CTD), amino acids 706-960, cloned into pGEX-4T1; pGEX-4T1 normally places GST at the N-terminus; also called Nek9-CTD; GST-Nek9-CTD; source: E. coli Rosetta DE3, purified (glutathione Sepharose)
